These results are taken from US20030175703, “RNA aptamers and methods for identifying the same” (published 2003).

A word on the Kd: it is the concentration at which binding is half-saturated. Higher therefore signals weaker binding.

First the molecules themselves.
B1: D7-7 (ssRNA)
RNA: GGGAGAGAGGAAGAGGGAUGGGAGAAUACGCCUAGCGAGAAGAUACUUGGCCCCCGUGCAACCAUAACCCAGAGGUCGAU
B2: D4-7 (ssRNA)
RNA: GGGAGAGAGGAAGAGGGAUGGGAUAAUAGCCCCAGCGAGAUAAUACUUGGCCCCGCUACUAACAUAACCCAGAGGUCGAU
B3: D7-9 (ssRNA)
RNA: GGGAGAGAGGAAGAGGGAUGGGUAAAUAGCCCCAGCGAGAUUCUACUUGGCCCCGCUACUACCAUAACCCAGAGGUCGAU
B4: F11-8 (ssRNA)
RNA: GGGAGAGAGGAAGAGGGAUGGGAGAUUAGCCCCAGCGAGAUAAUACUUGGCCCCGCUACUACCAUAACCCAGAGGUCGAU
B5: D6-7 (ssRNA)
RNA: GGGAGAGAGGAAGAGGGAUGGGUGCAUAGCCCCAGCGAGAUAAUACUUGGCCCCGCUACAACCAUAACCCAGAGGUCGAU
B6: D6-2 (ssRNA)
RNA: GGGAGAGAGGAAGAGGGAUGGGAAAAUAGCCCCAGCGAGAUAAUACUUGGCCCCGCUACAACCAUAACCCAGAGGUCGAU
B7: D6-9 (ssRNA)
RNA: GGGAGAGAGGAAGAGGGAUGGGAAAUUUGCCCCAGCGAGAUAAUACUUGGCCCCGCAACUACCAUAACCCAGAGGUCGAU
B8: D6-3 (ssRNA)
RNA: GGGAGAGAGGAAGAGGGAUGGGAAAAUAGCCCCAGCGAGAUAAUACUUGGCCCCGCUGUUACCAUAACCCAGAGGUCGAU
B9: D8-1 (ssRNA)
RNA: GGGAGAGAGGAAGAGGGAUGGGAAAAUAGCCCCAGCGAGAUGAUACUUGGCCCCGCUAAUACCAUAACCCAGAGGUCGAU
B10: F11-7 (ssRNA)
RNA: GGGAGAGAGGAAGAGGGAUGGGAAAAUAGCCCCAGCGAGAUAAUACUUGGCCCCGCUAUUACCAUAACCCAGAGGUCGAU
B11: D7-2 (ssRNA)
RNA: GGGAGAGAGGAAGAGGGAUGGGAGAAUAGCCCCAGCGAGAUAAUACUUGGCCCCGCUAAUACCAUAACCCAGAGGUCGAU
B12: D7-1 (ssRNA)
RNA: GGGAGAGAGGAAGAGGGAUGGGAGAAUGGCCCCAGCGAGAUUAUACUUGGCCCCGCCAAUACCAUAACCCAGAGGUCGAU
B13: D7-6 (ssRNA)
RNA: GGGAGAGAGGAAGAGGGAUGGGAAAAUAGCCCCAGCGAGAUAAUACUUGGCCCCGCUAGCACCAUAACCCAGAGGUCGAU
B14: E10-12 (ssRNA)
RNA: GGGAGAGAGGAAGAGGGAUGGGAAAAUAGCCCCAGCGAGAUAAUACUUGGCCCCGCGAACACCAUAACCCAGAGGUCGAU
B15: D6-4 (ssRNA)
RNA: GGGAGAGAGGAAGAGGGAUGGGAAAUUUGCCCUAGCGAGAUUAUACUUGGCCCCGCGAAAAACCAUAACCCAGAGGUCGAU
B16: 11.F7t (ssRNA)
RNA: GAGAGCCCCAGCGAGAUAAUACUUGGCCCCGCUCUU

Sequence of coagulation factor Xa (FXa) (P00742 41-179, chain 1 of 2): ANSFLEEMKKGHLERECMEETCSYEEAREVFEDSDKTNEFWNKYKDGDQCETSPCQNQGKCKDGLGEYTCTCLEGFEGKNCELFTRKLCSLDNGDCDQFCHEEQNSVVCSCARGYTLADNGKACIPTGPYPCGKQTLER
Sequence of coagulation factor Xa (FXa) (P00742 235-488, chain 2 of 2): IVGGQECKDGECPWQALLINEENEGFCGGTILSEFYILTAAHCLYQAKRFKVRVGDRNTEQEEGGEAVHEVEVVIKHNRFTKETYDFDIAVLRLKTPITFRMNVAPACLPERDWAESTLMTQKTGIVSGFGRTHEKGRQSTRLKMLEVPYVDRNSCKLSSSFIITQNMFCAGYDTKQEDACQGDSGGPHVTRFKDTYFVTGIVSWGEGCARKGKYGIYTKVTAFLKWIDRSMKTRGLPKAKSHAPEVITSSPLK

The data set has as its target coagulation factor Xa (FXa) (UniProt P00742;P00742 P00742:41-179,P00742:235-488).
Consider B1, for which the equilibrium dissociation constant (Kd) turned out to be 5.8 nM.
For the molecule B2, the binding result was “binds”.
Consider B3, for which the Kd is 2.63 nM.
Still for that read-out and setting: the value for B4 was 2.2 nM; that for B5 was 13.2 nM.
With B6, the Kd stood at 4.6 nM.
On the same count and under the same terms, with B7 the figure was 6.5 nM; with B8, 5.9 nM; with B9, 4.8 nM.
Molecule B10 showed a Kd of 3.6 nM.
B11 came in with a Kd of 8.1 nM.
Still for that read-out and setting: with B12 the figure was 4.7 nM; with B13, 3.8 nM.
B14: the Kd amounted to 11.7 nM. This Kd is about 3.1-fold higher than that of the molecule before.
Still for that read-out and setting: with B15 the figure was 8.5 nM.
In the case of B16, the Kd is about 1.5 nM.
